Source: patent US20200016266A1 (INIS BIOTECH, published 2020)
Where two headings read alike, the source gives them in different places.

T1: TFDQANLTVKLPD
T1 construct: 13-mer of the Gal1 peptide array, axis label
T1 peptide: TFDQANLTVKLPD

T2: QPGSVAEVCITFD
T2 construct: 13-mer of the Gal1 peptide array, axis label
T2 peptide: QPGSVAEVCITFD

T3: GLVASNL
T3 construct: 7-mer of the Gal1 peptide array, axis label
T3 peptide: GLVASNL

T4: PGECLRV
T4 construct: 7-mer of the Gal1 peptide array, axis label
T4 peptide: PGECLRV

T5: NLGKDSN
T5 construct: 7-mer of the Gal1 peptide array, axis label
T5 peptide: NLGKDSN

T6: VAPDAKS
T6 construct: 7-mer of the Gal1 peptide array, axis label
T6 peptide: VAPDAKS

T7: LPDGYEFKFPNRL
T7 construct: 13-mer of the Gal1 peptide array, axis label
T7 peptide: LPDGYEFKFPNRL


How the values were obtained:
TFDQANLTVKLPD [1] = molecular target: T1, TFDQANLTVKLPD; assay: PEPperMAP conformational epitope mapping peptide array, fluorescence intensity [a.u.]
QPGSVAEVCITFD [2] = molecular target: T2, QPGSVAEVCITFD; assay: as above
GLVASNL [3] = molecular target: T3, GLVASNL; assay: as above
PGECLRV [4] = molecular target: T4, PGECLRV; assay: as above
NLGKDSN [5] = molecular target: T5, NLGKDSN; assay: as above
VAPDAKS [6] = molecular target: T6, VAPDAKS; assay: as above
LPDGYEFKFPNRL [7] = molecular target: T7, LPDGYEFKFPNRL; assay: as above
[8] = molecular target: T8, Galectin-1 (human recombinant Gal1) (human, UniProt P09382 2-135, DyLight 594 label in the FRET assay only); assay: SPR, BIAEvaluation 3.0, 1:1 kinetic model
T8 construct: Recombinant Gal1 made in-house; also called rhGal1; 594-Gal1
Procedure: By using the BIAEvaluation 3.0 software in a kinetics model of interaction adjustment 1:1, kinetic parameters, constants of dissociation (Kd) and affinity (Ka) were calculated.

TFDQANLTVKLPD [9] = molecular target: T1, TFDQANLTVKLPD; assay: PEPperMAP conformational epitope mapping peptide array, fluorescence intensity [a.u.]
QPGSVAEVCITFD [10] = molecular target: T2, QPGSVAEVCITFD; assay: as above
GLVASNL [11] = molecular target: T3, GLVASNL; assay: as above
PGECLRV [12] = molecular target: T4, PGECLRV; assay: as above
NLGKDSN [13] = molecular target: T5, NLGKDSN; assay: as above
VAPDAKS [14] = molecular target: T6, VAPDAKS; assay: as above
LPDGYEFKFPNRL [15] = molecular target: T7, LPDGYEFKFPNRL; assay: as above

T8 sequence (P09382 2-135 limits assumed): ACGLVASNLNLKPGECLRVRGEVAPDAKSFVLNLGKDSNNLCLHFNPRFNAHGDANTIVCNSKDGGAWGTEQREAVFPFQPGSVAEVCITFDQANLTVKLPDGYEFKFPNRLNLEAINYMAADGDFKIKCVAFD

binding result (TFDQANLTVKLPD [1])	binding result (QPGSVAEVCITFD [2])	binding result (GLVASNL [3])	binding result (PGECLRV [4])	binding result (NLGKDSN [5])	binding result (VAPDAKS [6])	binding result (LPDGYEFKFPNRL [7])	Ka [8] [M⁻¹]	Kd [8] [nM]	binding result (TFDQANLTVKLPD [9])	binding result (QPGSVAEVCITFD [10])	binding result (GLVASNL [11])	binding result (PGECLRV [12])	binding result (NLGKDSN [13])	binding result (VAPDAKS [14])	binding result (LPDGYEFKFPNRL [15])	Binder
no binding (tested: 10 µg/ml)	no binding (tested: 10 µg/ml)	no binding (tested: 10 µg/ml)	no binding (tested: 10 µg/ml)	no binding (tested: 10 µg/ml)	no binding (tested: 10 µg/ml)	no binding (tested: 10 µg/ml)	649000	1540	–	–	–	–	–	–	–	anti-Gal1 Clone 21, fully human monoclonal antibody (antibody, V domains shown, also called MAb21; Human Ab 21) VH: EVQLLESGGGLVQPGGSLRLSCAASGFTFSSYAMSWVRQAPGKGLEWVSEIGRVGVNTLYADSVKGRFTISRDNSKNTLYLQMNSLRAEDTAVYYCAKKATQFDYWGQGTLVTVSS VL: DIQMTQSPSSLSASVGDRVTITCRASQSISSYLNWYQQKPGKAPKLLIYRASRLQSGVPSRFSGSGSGTDFTLTISSLQPEDFATYYCQQTIGPPDTFGQGTKVEIKR
–	–	–	–	–	–	–	7.63e+06	131	no binding (tested: 10 µg/ml)	no binding (tested: 10 µg/ml)	no binding (tested: 10 µg/ml)	no binding (tested: 10 µg/ml)	no binding (tested: 10 µg/ml)	no binding (tested: 10 µg/ml)	no binding (tested: 10 µg/ml)	anti-Gal1 Clone 42, fully human monoclonal antibody (antibody, V domains shown, also called MAb42; Human Ab 42) VH: EVQLLESGGGLVQPGGSLRLSCAASGFTFSSYAMSWVRQAPGKGLEWVSGISGSGDYTSYADSVKGRFTISRDNSKNTLYLQMNSLRAEDTAVYYCAKGYGAFDYWGQGTLVTVSS VL: DIQMTQSPSSLSASVGDRVTITCRASQSISSYLNWYQQKPGKAPKLLIYGASWLQSGVPSRFSGSGSGTDFTLTISSLQPEDFATYYCQQSANYPSTFGQGTKVEIKR
